Source: PMC3298459

Assays:
[1] = substrate: O=C1O[C@@H](COP(=O)(O)O)[C@H](O)[C@@H]1O; assay: purified protein; type: biochemical, Halalkalibacterium halodurans; conditions: [Co/Co] form, 2.5 mM Bicine pH 8.3, 0.2 M NaCl, 1% DMSO
[2] = substrate: O=C1O[C@H](COP(=O)(O)O)[C@H](O)[C@@H]1O; assay: purified protein; type: biochemical, Halalkalibacterium halodurans; conditions: [Co/Co] form, 2.5 mM Bicine pH 8.3, 0.2 M NaCl, 1% DMSO

B1: Bh0225 (Halalkalibacterium halodurans C-125) (protein)
chain: MSFIRTLRGDINPEELGFTYSHEHIVCRPDYWVQRQEGDLLLDDKEKSKRDVEDFKRHGGNSIVDATAVDYGRDVGAVKAISDELDVHIIGTAGFNKSFLWNAKIKEELKPIIGGQYDTFAEWIDGSTIHDLTEFVVREVEEGLEGTPWKAGQVKFGTGYNRISPLEEKTLRAVARAHHETKAPIHSHTEVGTMALEQIELLKSEGINLEHVSIGHMDRNPDPYYHEQIAKTGAFLSFDGIGKIKYAPESTRIHCILELVKKGYDQQILISGDTARKTYYKHYDYGLGLEYIIAKWIPRFISEANHRGFDGEALIHTFFVENPARCFAFKL
Km [1]: 200 ± 20 µM | kcat [1]: 30 ± 1 s⁻¹ | kcat/Km [1]: 150000 ± 15000 M⁻¹ s⁻¹ | Km [2]: 240 ± 20 µM | kcat [2]: 24 ± 1 s⁻¹ | kcat/Km [2]: 100000 ± 10000 M⁻¹ s⁻¹
